Measurements reported in patent US12247058 (Bristol-Myers Squibb, dated 2025).
Changes are numbered by the printed parent chain. Non-standard residues stand in square brackets, D forms with d. Phe(4-Ac) = CC(=O)c1ccc(C[C@H](N)C(=O)O)cc1

T1: human β-klotho with a C-terminal FLAG tag, stably expressed in a clonal HEK-293 cell line (human, UniProt Q86Z14 1-1044)
T1 sequence: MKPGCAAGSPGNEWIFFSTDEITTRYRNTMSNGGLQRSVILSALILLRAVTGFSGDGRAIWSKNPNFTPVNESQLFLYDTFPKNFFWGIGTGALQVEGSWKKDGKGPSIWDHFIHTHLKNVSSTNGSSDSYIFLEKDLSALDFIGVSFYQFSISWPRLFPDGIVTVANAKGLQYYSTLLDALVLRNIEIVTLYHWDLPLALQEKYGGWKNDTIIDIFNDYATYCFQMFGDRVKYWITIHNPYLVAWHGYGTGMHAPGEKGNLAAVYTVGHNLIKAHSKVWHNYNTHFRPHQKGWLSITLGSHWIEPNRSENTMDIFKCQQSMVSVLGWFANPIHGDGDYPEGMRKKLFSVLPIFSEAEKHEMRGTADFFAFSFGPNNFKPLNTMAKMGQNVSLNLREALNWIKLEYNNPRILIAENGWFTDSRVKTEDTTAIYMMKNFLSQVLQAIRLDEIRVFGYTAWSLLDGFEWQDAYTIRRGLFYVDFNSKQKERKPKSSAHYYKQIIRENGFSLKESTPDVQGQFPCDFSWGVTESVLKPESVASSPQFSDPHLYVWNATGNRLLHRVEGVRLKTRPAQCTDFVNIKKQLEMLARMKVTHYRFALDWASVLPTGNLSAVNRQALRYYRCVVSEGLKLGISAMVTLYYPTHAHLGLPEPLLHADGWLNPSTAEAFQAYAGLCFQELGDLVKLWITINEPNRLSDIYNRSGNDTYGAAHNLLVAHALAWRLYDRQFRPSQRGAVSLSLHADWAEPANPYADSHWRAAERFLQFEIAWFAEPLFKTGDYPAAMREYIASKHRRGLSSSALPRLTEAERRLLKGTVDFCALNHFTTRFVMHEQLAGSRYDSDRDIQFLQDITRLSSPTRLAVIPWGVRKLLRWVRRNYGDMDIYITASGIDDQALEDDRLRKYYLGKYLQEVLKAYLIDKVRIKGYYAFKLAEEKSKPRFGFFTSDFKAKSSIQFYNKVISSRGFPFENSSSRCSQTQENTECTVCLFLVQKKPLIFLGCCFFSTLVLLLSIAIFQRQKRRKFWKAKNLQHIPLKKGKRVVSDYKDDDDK

B1: Compound 2 (ligand)
chain: MHPIPDSSPLLQFGGQVRQRYLYTDDAQQTEAHLEIREDGTVGGAADQSPESLLQLKALKPGVIQILGVKTSRFLCQRPDGALYGSLHFDPEACSFRELLLEDGYNVYQSEAHGLPLHLGSGRGPARFLPLPGLPPAPPEPPGILAPQPPDVGSSDPLSMVEPSQGRSPSYAS
B2: Compound 20 (ligand)
chain: MHPIPDSSPLLQFGGQVRQRYLYTDDAQQTEAHLEIREDGTVGGAADQSPESLLQLKALKPGVIQILGVKTSRFLCQRPDGALYGSLHFDPEACSFRELLLEDGYNVYQSEAHGLPLHLGGHRDPAPRGPARFLPLPGLPPAPPEPPGILAPQPPDVGSSDPLSMVEPSQGRSPSYAS
B3: Compound 3 (ligand)
chain: MHPIPDSSPLLQFGGQVRQRYLYTDDAQQTEAHLEIREDGTVGGAADQSPESLLQLKALKPGVIQILGVKTSRFLCQRPDGALYGSLHFDPEACSFRELLLEDGYNVYQSEAHGLPLHLPGNKSPHRDPAPRGPARFLPLPGLPPAPPEPPGILAPQPPDVGSSDPLSMVEPSQGRSPSYAS
B4: Compound 7 (ligand)
chain: B3 chain with N122D
B5: Compound 19 (ligand)
chain: MHPIPDSSPLLQFGGQVRQRYLYTDDAQQTEAHLEIREDGTVGGAADQSPESLLQLKALKPGVIQILGVKTSRFLCQRPDGALYGSLHFDPEACSFRELLLEDGYNVYQSEAHGLPLHLGSGPHRDPAPRGPARFLPLPGLPPAPPEPPGILAPQPPDVGSSDPLSMVEPSQGRSPSYAS
B6: Compound 6 (ligand)
chain: B5 chain with G120P, S121G, G122H, P123K, H124S
B7: Compound 12 (ligand)
chain: B5 chain with G120P, S121H, G122H, P123S, H124G
B8: Compound 5 (ligand)
chain: B5 chain with G120P, S121G, G122D, P123K, H124S
B9: Compound 10 (ligand)
chain: MHPIPDSSPLLQFGGQVRQRYLYTDDAQQTEAHLEIREDGTVGGAADQSPESLLQLKALKPGVIQILGVKTSRFLCQRPDGALYGSLHFDPEACSFRELLLEDGYNVYQSEAHGLPLHLGSGGPARFLPLPGLPPAPPEPPGILAPQPPDVGSSDPLSMVEPSQGRSPSYAS
B10: Compound 22 (ligand)
chain: MHPIPDSSPLLQFGGQVRQRYLYTDDAQQTEAHLEIREDGTVGGAADQSPESLLQLKALKPGVIQILGVKTSRFLCQRPDGALYGSLHFDPEACSFRELLLEDGYNVYQSEAHGLPLHLSGGPAPRGPARFLPLPGLPPAPPEPPGILAPQPPDVGSSDPLSMVEPSQGRSPSYAS
B11: Compound 23 (ligand)
chain: MHPIPDSSPLLQFGGQVRQRYLYTDDAQQTEAHLEIREDGTVGGAADQSPESLLQLKALKPGVIQILGVKTSRFLCQRPDGALYGSLHFDPEACSFRELLLEDGYNVYQSEAHGLPLHLGGGPARFLPLPGLPPAPPEPPGILAPQPPDVGSSDPLSMVEPSQGRSPSYAS
B12: Compound 11 (ligand)
chain: MHPIPDSSPLLQFGGQVRQRYLYTDDAQQTEAHLEIREDGTVGGAADQSPESLLQLKALKPGVIQILGVKTSRFLCQRPDGALYGSLHFDPEACSFRELLLEDGYNVYQSEAHGLPLHLGSGHRDPAPRGPARFLPLPGLPPAPPEPPGILAPQPPDVGSSDPLSMVEPSQGRSPSYAS
B13: Pegylated Compound 12 (ligand)
chain: MHPIPDSSPLLQFGGQVRQRYLYTDDAQQTEAHLEIREDGTVGGAADQSPESLLQLKALKPGVIQILGVKTSRFLCQRPDGALYGSLHFDPEACSFRELLLEDGYNVY[Phe(4-Ac)](PEG about 30 kDa)SEAHGLPLHLPHHSGRDPAPRGPARFLPLPGLPPAPPEPPGILAPQPPDVGSSDPLSMVEPSQGRSPSYAS
B14: Pegylated Compound 5 (ligand)
chain: MHPIPDSSPLLQFGGQVRQRYLYTDDAQQTEAHLEIREDGTVGGAADQSPESLLQLKALKPGVIQILGVKTSRFLCQRPDGALYGSLHFDPEACSFRELLLEDGYNVY[Phe(4-Ac)](PEG 30 kDa)SEAHGLPLHLPGDKSRDPAPRGPARFLPLPGLPPAPPEPPGILAPQPPDVGSSDPLSMVEPSQGRSPSYAS
B15: Pegylated Compound 22 (ligand)
chain: MHPIPDSSPLLQFGGQVRQRYLYTDDAQQTEAHLEIREDGTVGGAADQSPESLLQLKALKPGVIQILGVKTSRFLCQRPDGALYGSLHFDPEACSFRELLLEDGYNVY[Phe(4-Ac)](PEG 30 kDa)SEAHGLPLHLSGGPAPRGPARFLPLPGLPPAPPEPPGILAPQPPDVGSSDPLSMVEPSQGRSPSYAS
B16: Pegylated Compound 20 (ligand)
chain: MHPIPDSSPLLQFGGQVRQRYLYTDDAQQTEAHLEIREDGTVGGAADQSPESLLQLKALKPGVIQILGVKTSRFLCQRPDGALYGSLHFDPEACSFRELLLEDGYNVY[Phe(4-Ac)](PEG about 30 kDa)SEAHGLPLHLGGHRDPAPRGPARFLPLPGLPPAPPEPPGILAPQPPDVGSSDPLSMVEPSQGRSPSYAS
B17: Pegylated Compound 19 (ligand)
chain: MHPIPDSSPLLQFGGQVRQRYLYTDDAQQTEAHLEIREDGTVGGAADQSPESLLQLKALKPGVIQILGVKTSRFLCQRPDGALYGSLHFDPEACSFRELLLEDGYNVY[Phe(4-Ac)](PEG about 30 kDa)SEAHGLPLHLGSGPHRDPAPRGPARFLPLPGLPPAPPEPPGILAPQPPDVGSSDPLSMVEPSQGRSPSYAS
B18: Pegylated Compound 10 (ligand)
chain: MHPIPDSSPLLQFGGQVRQRYLYTDDAQQTEAHLEIREDGTVGGAADQSPESLLQLKALKPGVIQILGVKTSRFLCQRPDGALYGSLHFDPEACSFRELLLEDGYNVY[Phe(4-Ac)](PEG about 30 kDa)SEAHGLPLHLGSGGPARFLPLPGLPPAPPEPPGILAPQPPDVGSSDPLSMVEPSQGRSPSYAS
B19: Pegylated Compound 21 (ligand)
chain: MHPIPDSSPLLQFGGQVRQRYLYTDDAQQTEAHLEIREDGTVGGAADQSPESLLQLKALKPGVIQILGVKTSRFLCQRPDGALYGSLHFDPEACSFRELLLEDGYNVY[Phe(4-Ac)](PEG about 30 kDa)SEAHGLPLHLGSGRDPAPRGPARFLPLPGLPPAPPEPPGILAPQPPDVGSSDPLSMVEPSQGRSPSYAS
B20: Pegylated Compound 6 (ligand)
chain: MHPIPDSSPLLQFGGQVRQRYLYTDDAQQTEAHLEIREDGTVGGAADQSPESLLQLKALKPGVIQILGVKTSRFLCQRPDGALYGSLHFDPEACSFRELLLEDGYNVY[Phe(4-Ac)](PEG 30 kDa)SEAHGLPLHLPGHKSRDPAPRGPARFLPLPGLPPAPPEPPGILAPQPPDVGSSDPLSMVEPSQGRSPSYAS
B21: Pegylated Compound 11 (ligand)
chain: MHPIPDSSPLLQFGGQVRQRYLYTDDAQQTEAHLEIREDGTVGGAADQSPESLLQLKALKPGVIQILGVKTSRFLCQRPDGALYGSLHFDPEACSFRELLLEDGYNVY[Phe(4-Ac)](PEG about 30 kDa)SEAHGLPLHLGSGHRDPAPRGPARFLPLPGLPPAPPEPPGILAPQPPDVGSSDPLSMVEPSQGRSPSYAS

The binders below were run against T1, human β-klotho with a C-terminal FLAG … (assay: cell-based or functional assay).

| Binder | pERK EC50 [nM] |
| --- | --- |
| B1 | 4.6 |
| B2 | 3.9 |
| B3 | 28 |
| B4 | 28.4 |
| B5 | 5.1 |
| B6 | 39.1 |
| B7 | 31.9 |
| B8 | 69.2 |
| B9 | 21.9 |
| B10 | 4.1 |
| B11 | 30 |
| B12 | 28.2 |

Molecular target: T1, human β-klotho with a C-terminal FLAG …
Assay: cell-based or functional assay
Remark: another data set of the same source

| Binder | EC50 in the pERK assay [nM] |
| --- | --- |
| B13 | 39 |
| B14 | 24 |
| B15 | 36 |
| B16 | 42 |
| B17 | 30 |
| B18 | 28 |
| B19 | 30 |
| B20 | 20 |
| B21 | 30 |
